In patent US20260167959A1, “APTAZYME-BASED REGULATABLE GENE EXPRESSION SYSTEMS” (REJUVENATE BIO INC, priority 2022, published 2026):
Changes are numbered by the printed parent chain.

B1: RA219 (nucleic acid)
DNA: GCGCGTCCTGGATTCGCGGAAACGCGTACATCCAGCGGAATACCAGCATCGTCTTGATGCCCTTGGAAGTCCTGACGAGTCCCAAATAGGACGAAACGCGC
modifications: expressed or natural sequence
B2: RA225 (nucleic acid)
DNA: GCGCGTCCTGGATTCGCGGAAACGCGTACATCCAGCTGACGAGTCCCAAATAAGAATACCAGCATCGTCTTGATGCCCTTGGAAGTCTGGACGAAACGCGC
modifications: expressed or natural sequence
B3: RA231 (nucleic acid)
DNA: GCGAGAATACCAGCATCGTCTTGATGCCCTTGGAAGTCTCGCGTCCTGGATTCGCGGAAACGCGTACATCCAGCTGACGAGTCCCAAATAGGACGAAACGCGC
modifications: expressed or natural sequence
B4: RA233 (nucleic acid)
DNA: B3 DNA with G3A, A4G, G5T, A6G, A34C, T37C, C38A, T39C, C40T
modifications: expressed or natural sequence
B5: RA220 (nucleic acid)
DNA: GCCGAGAATACCAGCATCGTCTTGATGCCCTTGGAAGTCTCGGCGTCCTGGATTCGCGGAAACGCGTACATCCAGCTGACGAGTCCCAAATAGGACGAAACGCGC
modifications: expressed or natural sequence
B6: RA232 (nucleic acid)
DNA: B5 DNA with G4C, A5G, T40C, C41G
modifications: expressed or natural sequence
B7: RA022 (nucleic acid)
DNA: GCGCGTCCTGGATTCGCGGAAACGCGTACAAGTGATACCAGCATCGTCTTGATGCCCTTGGCAGCACTTCCAGCTGACGAGTCCCAAATAGGACGAAACGCGC
modifications: expressed or natural sequence
B8: RA222 (nucleic acid)
DNA: GCGCGTCCTGGATTCGCGGAAACGCGTACATCCAGCTGACAGAATACCAGCATCGTCTTGATGCCCTTGGAAGTCTGAGTCCCAAATAGGACGAAACGCGC
modifications: expressed or natural sequence
B9: RA229 (nucleic acid)
DNA: GCGCCGGAATACCAGCATCGTCTTGATGCCCTTGGAAGTCCGGCGTCCTGGATTCGCGGAAACGCGTACATCCAGCTGACGAGTCCCAAATAGGACGAAACGCGC
modifications: expressed or natural sequence
B10: RA235 (nucleic acid)
DNA: GCGCGTCCTGGATTCGCGGAAACGCGTACATCCAGCTGACGAGTCCCAAATAGGAGAGAATACCAGCATCGTCTTGATGCCCTTGGAAGTCTCCGAAACGCGC
modifications: expressed or natural sequence
B11: RA223 (nucleic acid)
DNA: GCGCGTCCTGCGAGAATACCAGCATCGTCTTGATGCCCTTGGAAGTCTCGGATTCGCGGAAACGCGTACATCCAGCTGACGAGTCCCAAATAGGACGAAACGCGC
modifications: expressed or natural sequence
B12: RA234 (nucleic acid)
DNA: GCGCGTCCTGGATTCGCGGAAACGCGTACATCCAGCTGACGAGTCCCAAATAGGACGAAACCGGAATACCAGCATCGTCTTGATGCCCTTGGAAGTCCGGCGC
modifications: expressed or natural sequence
B13: RA237 (nucleic acid)
DNA: GCGCGTCCTGGATTCGCGGAAACGCGTACATCCAGCTGACGGAGAATACCAGCATCGTCTTGATGCCCTTGGAAGTCTCAGTCCCAAATAGGACGAAACGCGC
modifications: expressed or natural sequence
B14: RA242 (nucleic acid)
DNA: GCGCGTCCTGGATTCCGGAATACCAGCATCGTCTTGATGCCCTTGGAAGTCCGGCGCGGAAACGCGTACATCCAGCTGACGAGTCCCAAATAGGACGAAACGCGC
modifications: expressed or natural sequence
B15: RA221 (nucleic acid)
DNA: GCGCGTCCTGGATTCGCGGAAACGCGTACATCCAGCTGACGGAATACCAGCATCGTCTTGATGCCCTTGGAAGTCCGCGAGTCCCAAATAGGACGAAACGCGC
modifications: expressed or natural sequence
B16: RA226 (nucleic acid)
DNA: B15 DNA with C40A, G42T, A43G, A71C, T74C, C75A, G77T
modifications: expressed or natural sequence
B17: RA228 (nucleic acid)
DNA: GCGCGTCCTGGATTCGCGGAAACGCGTACATCCAGCTGGGAATACCAGCATCGTCTTGATGCCCTTGGAAGTCCACGAGTCCCAAATAGGACGAAACGCGC
modifications: chemistry not given here
B18: RA224 (nucleic acid)
DNA: GCGCGTCCTGGATTCGCGGAAACGCGTACATCCAGCTGACGAGTCCCAAATAGAGAATACCAGCATCGTCTTGATGCCCTTGGAAGTCTGACGAAACGCGC
modifications: expressed or natural sequence
B19: RA023 (nucleic acid)
DNA: GCGCGTCCTGGATTCGCGGAAACGCGTGAGAATACCAGCATCGTCTTGATGCCCTTGGAAGTCTCACATCCAGCTGACGAGTCCCAAATAGGACGAAACGCGC
modifications: expressed or natural sequence
B20: RA239 (nucleic acid)
DNA: GCGCGTCCTGGATTCGCGGAAACGCGTACATCCAGCTGACCCGGAATACCAGCATCGTCTTGATGCCCTTGGAAGTCCGGGAGTCCCAAATAGGACGAAACGCGC
modifications: expressed or natural sequence
B21: RA227 (nucleic acid)
DNA: GCGCGTCCGAGAATACCAGCATCGTCTTGATGCCCTTGGAAGTCTCGCTGGATTCGCGGAAACGCGTACATCCAGCTGACGAGTCCCAAATAGGACGAAACGCGC
modifications: expressed or natural sequence
B22: RA238 (nucleic acid)
DNA: GCGCGTCCTGGATTAGAATACCAGCATCGTCTTGATGCCCTTGGAAGTCTCGCGGAAACGCGTACATCCAGCTGACGAGTCCCAAATAGGACGAAACGCGC
modifications: expressed or natural sequence
B23: RA243 (nucleic acid)
DNA: GCGCGTCCTGGATTCGCGGAAACGCGTACATCCAGCCCGGAATACCAGCATCGTCTTGATGCCCTTGGAAGTCCGGTGACGAGTCCCAAATAGGACGAAACGCGC
modifications: expressed or natural sequence
B24: RA236 (nucleic acid)
DNA: GCGCGTCCTGGATTCGCGGAAACGCGTACACCGGAATACCAGCATCGTCTTGATGCCCTTGGAAGTCCGGTCCAGCTGACGAGTCCCAAATAGGACGAAACGCGC
modifications: expressed or natural sequence
B25: RA240 (nucleic acid)
DNA: GCGCGTCCTGGATTCGCGGAAACGCGTACATCCAGCTGACGAGTCCCCGAGAATACCAGCATCGTCTTGATGCCCTTGGAAGTCTCGAAATAGGACGAAACGCGC
modifications: expressed or natural sequence
B26: RA230 (nucleic acid)
DNA: GCGCGTCCTGAGAATACCAGCATCGTCTTGATGCCCTTGGAAGTCTCGGATTCGCGGAAACGCGTACATCCAGCTGACGAGTCCCAAATAGGACGAAACGCGC
modifications: expressed or natural sequence
B27: RA241 (nucleic acid)
DNA: GCGCGTCCTCCGGAATACCAGCATCGTCTTGATGCCCTTGGAAGTCCGGGGATTCGCGGAAACGCGTACATCCAGCTGACGAGTCCCAAATAGGACGAAACGCGC
modifications: expressed or natural sequence

Tested on: Renilla luciferase RNA
Assay: Barcoded aptazyme variant library screen: un-cleaved Renilla luciferase RNA by barcode read counts, HEK293-T cells
Format: cell-based
Conditions: un-cleaved Renilla luciferase RNA, HEK293-T cells cultured with 1 mM theophylline (ON) over without theophylline (OFF); barcode read counts, triplicate
Procedure, shortened: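 Aptazyme variants (seven theophylline aptamers inserted after each T3H48 ribozyme nucleotide, 9-nt barcoded) cloned into the 3′ UTR of Renilla luciferase in psiCHECK-2; cells cultured ± theophylline, in triplicate. RNA and DNA barcodes amplified and sequenced; normalized read counts gave un-cleaved RNA fraction and ON/OFF fold-change.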

Molecule | Fold change in RNA expression between the ON state and the OFF state
B1 | 1.2 fold
B2 | 1.1 fold
B3 | 1.1 fold
B4 | 1.1 fold
B5 | 1.2 fold
B6 | 1.1 fold
B7 | 2.6 fold
B8 | 1.2 fold
B9 | 1.1 fold
B10 | 1.1 fold
B11 | 1.2 fold
B12 | 1.1 fold
B13 | 1.1 fold
B14 | 1.1 fold
B15 | 1.2 fold
B16 | 1.1 fold
B17 | 1.1 fold
B18 | 1.1 fold
B19 | 2.6 fold
B20 | 1.1 fold
B21 | 1.1 fold
B22 | 1.1 fold
B23 | 1.1 fold
B24 | 1.1 fold
B25 | 1.1 fold
B26 | 1.1 fold
B27 | 1.1 fold
